Reference: patent US6465228B1, “Levodione reductase” (Roche Vitamins, Inc., priority 1999, dated 2002)

Experiments:
[1] = substrate: C[C@@H]1CC(=O)CC(C)(C)C1=O; test: Michaelis constant (Km) and maximum velocity (Vmax); format: biochemical, Corynebacterium aquaticum AKU611; settings: other: compound as substrate; pH 7.0; 37.0 °C
Description: (§1) A basal reaction mixture having a total volume of 500 μl includes 100 μl of 1 M potassium phosphate buffer (pH 7.0), 20 μl of 8 mM NADH in 0.2 mM KOH, 10-40 μl of the enzyme solution (i.e., levodione reductase), and water up to a total of 500 μl . This reaction mixture was incubated for 1 minute at 37 ° C. Then, 2 μl of 0.5 M levodione solution were added to give a final concentration of 2 mM, and the whole mixture was incubated for 1 minute at 37 ° C. The levodione reductase enzyme activity was monitored with the decrease of the absorbance of NADH at 340 nm.
(§2) The Km and Vmax values of the enzyme were measured using levodione and actinol as the substrates. The basic enzyme assay method is the same as described under 1, but the substrate and the enzyme concentrations were varied.
(§3) The Km and Vmax values were calculated on the basis of the known Michaelis-Menten equation. Km is the concentration of the substrate that gives 50% of the Vmax of the enzyme reaction.

[2] = substrate: C[C@@H]1C[C@@H](O)CC(C)(C)C1=O; test: as above; format: biochemical, Corynebacterium aquaticum AKU611; settings: other: compound as substrate; pH 7.0; 37.0 °C
Description: as §1, §2, §3

B1: levodione reductase (Leifsonia aquatica) (protein)
chain: MTATSSPTTRFTDRVVLITGGGSGLGRATAVRLAAEGAKLSLVDVSSEGLEASKAAVLETAPDAEVLTTVADVSDEAQVEAYVTATTERFGRIDGFFNNAGIEGKQNPTESFTAAEFDKVVSINLRGVFLGLEKVLKIMREQGSGMVVNTASVGGIRGIGNQSGYAAAKHGVVGLTRNSAVEYGRYGIRINAIAPGAIWTPMVENSMKQLDPENPRKAAEEFIQVNPSKRYGEAPEIAAVVAFLLSDDASYVNATVVPIDGGQSAAY
notes: The LR is isolated and purified from the cell-free extract of disrupted cells; made in house; host or cells: Corynebacterium aquaticum AKU611 (FERM BP-6448); This is the natural producer and there was no recombinant expression; The enzyme was purified by ammonium sulfate precipitation and DEAE-Sephacel, alkyl Superose and MONO Q chromatography
Km [1]: 8.5 mM | Vmax [1]: 101.26 unit/mg | Km [2]: 1.36 mM | Vmax [2]: 15.91 unit/mg
